Legend:
[1] = biological target: T1, CD63 large extracellular domain, recombinant (Homo sapiens, UniProt P08962 103-203); assay: ELISA; PBS pH 7.4, 2.0 mM MgCl2, 0.02% Tween 20, 100 ug/mL salmon sperm DNA; ELISA 0.5 h; cells at RT 1 h (Methods) or 37 C 30 min (Results); conditions: protein: commercial, tags: C-terminal His
[2] = biological target: HER2 (Homo sapiens (Human), UniProt P04626 23-652); assay: as above; conditions: protein: commercial
[3] = biological target: T1, CD63 large extracellular domain, …; assay: ELISA; 200 nM aptamer; PBS pH 7.4, 2.0 mM MgCl2, 0.02% Tween 20, 100 ug/mL salmon sperm DNA; ELISA 0.5 h; cells at RT 1 h (Methods) or 37 C 30 min (Results); conditions: protein: commercial; tags: C-terminal His; label: biotin

T1 sequence (P08962 103-203): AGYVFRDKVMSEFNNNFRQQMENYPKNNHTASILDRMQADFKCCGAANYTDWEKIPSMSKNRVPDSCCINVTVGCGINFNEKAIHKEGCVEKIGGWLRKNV

Binder: TAACCACCCCACCTCGCTCCCGTGACACTAATGCTAATTCCAA (ssDNA) [CD63-2]
- Kd ([1]; label: biotin (ELISA)): 78.4 nM
- binding result ([2]; label: biotin (ELISA)): no binding

Binder: TACCTACGACATGCCTGTGCTAGCCGAACCATGCTGAGGTCGT (ssDNA) [CD63-6]
- binding result [3]: no binding

Binder: TAACACGACAGACGTTCGGAGGTCGAACCCTGACAGCGTGGGC (ssDNA) [CD63-1]
- Kd ([1]; label: 5' or 3' biotin (ELISA)): 38.7 nM
- binding result ([2]; label: 5' or 3' biotin (ELISA)): no binding
